The values that follow come from publication doi:10.1101/2022.01.16.476467 (bioRxiv, 2022).

Test [1] has as its target T1, CASK full-length protein (recombinant) (Mus musculus, UniProt O70589-3 1-897).
T1 sequence (looked up): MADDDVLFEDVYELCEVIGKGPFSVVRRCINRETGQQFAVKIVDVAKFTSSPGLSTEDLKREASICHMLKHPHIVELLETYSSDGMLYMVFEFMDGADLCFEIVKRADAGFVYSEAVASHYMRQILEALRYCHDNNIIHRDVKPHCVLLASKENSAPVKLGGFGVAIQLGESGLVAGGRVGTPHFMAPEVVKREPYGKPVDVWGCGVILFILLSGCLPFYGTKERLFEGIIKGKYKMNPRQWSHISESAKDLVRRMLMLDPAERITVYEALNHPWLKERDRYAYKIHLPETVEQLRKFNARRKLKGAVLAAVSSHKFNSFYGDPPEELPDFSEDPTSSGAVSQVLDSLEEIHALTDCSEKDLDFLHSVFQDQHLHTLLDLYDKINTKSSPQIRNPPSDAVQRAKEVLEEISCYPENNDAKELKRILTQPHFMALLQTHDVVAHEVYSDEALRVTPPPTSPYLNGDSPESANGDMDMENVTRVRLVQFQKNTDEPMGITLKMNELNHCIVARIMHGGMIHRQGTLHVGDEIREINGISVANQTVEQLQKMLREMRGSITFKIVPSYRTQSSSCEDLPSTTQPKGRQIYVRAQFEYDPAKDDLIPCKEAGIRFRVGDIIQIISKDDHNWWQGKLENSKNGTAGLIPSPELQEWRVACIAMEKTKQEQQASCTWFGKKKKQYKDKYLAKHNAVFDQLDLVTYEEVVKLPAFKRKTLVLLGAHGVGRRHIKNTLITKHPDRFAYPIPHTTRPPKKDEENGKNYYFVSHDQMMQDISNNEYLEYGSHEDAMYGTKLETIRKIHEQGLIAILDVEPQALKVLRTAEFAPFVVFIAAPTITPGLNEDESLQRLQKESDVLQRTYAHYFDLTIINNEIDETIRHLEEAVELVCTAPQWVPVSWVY
The test can be described thus: ITC.

Test [2] has as its target T2, CASK_CAMK domain (residues 1-345) (Mus musculus, UniProt O70589-3 1-345).
T2 sequence (looked up): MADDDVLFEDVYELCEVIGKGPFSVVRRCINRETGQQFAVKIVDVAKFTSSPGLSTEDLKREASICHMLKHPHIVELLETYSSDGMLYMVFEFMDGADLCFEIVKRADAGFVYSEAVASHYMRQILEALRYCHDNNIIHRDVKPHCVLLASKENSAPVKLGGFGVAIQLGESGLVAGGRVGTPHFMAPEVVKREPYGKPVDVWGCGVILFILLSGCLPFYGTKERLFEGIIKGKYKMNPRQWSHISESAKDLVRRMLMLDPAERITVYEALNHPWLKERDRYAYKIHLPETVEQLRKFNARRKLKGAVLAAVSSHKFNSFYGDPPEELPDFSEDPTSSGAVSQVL
The experiment in a line: SEC-MALS.

Test [3] deals with T2, CASK_CAMK domain (residues 1-345). The test can be described thus: ITC.

B1: Caskin1_N-terminal (residues 1-674) (domain or fragment)
chain: not shown
As for B1, the equilibrium dissociation constant (Kd) in test [1] is roughly 760 nM.

B2: Caskin1 extended CID protein (residues 371-466) (domain or fragment, Mus musculus, UniProt Q6P9K8-1 371-466, looked up)
chain: PPEEIWVLRKPFAGGDRSGSLSNVAGGRSTGGHALHAGSEGVKLLATVLSQKSVSESSPGDSPVKPPEGSSGAARSQPPAAHAGQVYGEQPPKKLE
On to B2, for which the “stoichiometry N” value in test [2] was roughly 1. In test [3], this molecule gave a Kd of 940 ± 90 nM.
